# Measurements reported in paper PMC9186387.
# Substitutions are numbered along the chain they refer to. Read-outs that look alike come from different tables or passages of the source.
# T1: DriD(Y168A-R178A-Y192A-R204A) (Caulobacter crescentus, UniProt Q9A999 5-331, Y172A;R182A;Y196A;R208A)
# T1 sequence: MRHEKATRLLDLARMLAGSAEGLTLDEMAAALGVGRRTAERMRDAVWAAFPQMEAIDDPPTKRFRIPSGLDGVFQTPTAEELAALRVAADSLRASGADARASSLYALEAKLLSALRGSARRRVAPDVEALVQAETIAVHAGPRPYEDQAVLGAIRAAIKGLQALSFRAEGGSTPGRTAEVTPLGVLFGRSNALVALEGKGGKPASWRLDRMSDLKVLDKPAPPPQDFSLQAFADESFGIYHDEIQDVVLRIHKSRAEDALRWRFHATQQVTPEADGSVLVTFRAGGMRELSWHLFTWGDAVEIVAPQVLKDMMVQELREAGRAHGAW
# T2: DriD(Y168A) (Caulobacter crescentus, UniProt Q9A999 5-331, Y172A)
# T2 sequence: T1 sequence with A178R, A192Y, A204R
# T3: DriD(R176A-R178A) (Caulobacter crescentus, UniProt Q9A999 5-331, R180A;R182A)
# T3 sequence: T1 sequence with A168Y, R176A, A192Y, A204R
# B1: DriD operator (optimized) (dsDNA)
# DNA 1: ATACGACCGTTTCTGTCGCA
# DNA 2: TGCGACAGAAACGGTCGTAT
# Columns and labels:
# [1] = biological target: C. crescentus full-length DriD (C. crescentus); assay: SEC
# [2] = biological target: T1, DriD(Y168A-R178A-Y192A-R204A); assay: fluorescence polarization
# DriD(Y168A) = biological target: T2, DriD(Y168A); assay: fluorescence polarization
# [3] = biological target: T1, DriD(Y168A-R178A-Y192A-R204A); assay: fluorescence polarization; remark: listed apart in the source
# DriD(R176A-R178A) = biological target: T3, DriD(R176A-R178A); assay: fluorescence polarization
molecule,measurement,setting,value
C. crescentus full-length DriD (natural protein),stoichiometry N,[1],2
B1,binding result,[2],no binding
same,Kd,DriD(Y168A),22.3 ± 7 nM
TAGTCTACT (ssDNA) [9mer ssDNA (F-labelled)],binding result,[3],no binding
same,binding result,DriD(R176A-R178A),no binding
